Measured values taken from paper PMC3918441.

Target: KDM5B PHD1 finger (wild type) (human)
Assay: other fluorescence titration

Kd: 1500 nM
Substance: H3K4me0 peptide (aa 1-12 of H3) (from UniProt P68431 2-13)
